The text below walks through data of publication doi:10.1101/774737.

This experiment addresses dynein intermediate chain (DIC), endogenous, human iPSC-derived motor neurons (human (endogenous in iPSC-derived motor neurons)) (UniProt O14576). Put plainly: proximity ligation.
Chain of UniProt O14576 (O14576 whole entry): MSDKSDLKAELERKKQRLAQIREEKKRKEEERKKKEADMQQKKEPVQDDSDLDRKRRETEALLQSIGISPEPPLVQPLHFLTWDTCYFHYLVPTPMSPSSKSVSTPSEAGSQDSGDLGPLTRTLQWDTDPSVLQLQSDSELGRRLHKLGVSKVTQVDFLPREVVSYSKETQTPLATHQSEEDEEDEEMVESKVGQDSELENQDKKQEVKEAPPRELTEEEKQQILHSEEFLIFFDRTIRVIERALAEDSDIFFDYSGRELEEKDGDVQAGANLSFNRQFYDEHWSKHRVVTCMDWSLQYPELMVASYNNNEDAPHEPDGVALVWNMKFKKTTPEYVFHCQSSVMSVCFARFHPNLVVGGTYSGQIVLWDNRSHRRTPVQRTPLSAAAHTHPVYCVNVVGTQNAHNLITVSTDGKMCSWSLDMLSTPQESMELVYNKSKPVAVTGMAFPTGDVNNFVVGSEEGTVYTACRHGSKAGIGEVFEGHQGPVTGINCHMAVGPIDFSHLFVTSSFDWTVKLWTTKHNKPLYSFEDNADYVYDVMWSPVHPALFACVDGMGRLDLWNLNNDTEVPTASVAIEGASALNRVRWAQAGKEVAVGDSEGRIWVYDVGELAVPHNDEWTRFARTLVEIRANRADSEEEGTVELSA

The substance “CRMP4, endogenous, human iPSC-derived motor neurons (from UniProt Q14195 1-570) (natural protein)” yielded a PLA puncta (C9orf72 iPSC-derived MN distal axons, without peptides) of 8.9.
